Experimental data from patent publication EP2329839B1.
Where “and” joins values, the source holds several entries; their conditions need not be identical. Identical values can stand only once. Where no end group is shown, it is not given here.

Key:
[1] = target: MC3-R (mouse arcuate nucleus) (mouse) (UniProt P33033); assay: cell-based or functional assay
[2] = target: µ opioid receptor (MOP-R) on mouse POMC neurons (mouse) (UniProt P42866); assay: cell-based or functional assay
[3] = target: T1, NPY Y2 receptor (on cell lines expressing it); assay: receptor-binding studies on cell lines expressing the NPY Y2 receptor; labelled ligand not named
T1 sequence (P49146 whole entry, species assumed, looked up): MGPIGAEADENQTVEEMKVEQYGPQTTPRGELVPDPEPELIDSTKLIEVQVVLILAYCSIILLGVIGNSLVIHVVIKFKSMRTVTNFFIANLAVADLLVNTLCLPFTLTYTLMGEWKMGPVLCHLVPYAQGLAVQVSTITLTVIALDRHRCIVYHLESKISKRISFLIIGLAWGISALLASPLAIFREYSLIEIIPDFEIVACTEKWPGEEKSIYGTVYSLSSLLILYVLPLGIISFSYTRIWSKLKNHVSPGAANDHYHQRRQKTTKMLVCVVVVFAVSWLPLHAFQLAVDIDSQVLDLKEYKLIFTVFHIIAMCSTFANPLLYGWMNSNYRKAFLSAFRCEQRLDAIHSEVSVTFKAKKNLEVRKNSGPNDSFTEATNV

UniProt P42866, sequence (P42866 whole entry): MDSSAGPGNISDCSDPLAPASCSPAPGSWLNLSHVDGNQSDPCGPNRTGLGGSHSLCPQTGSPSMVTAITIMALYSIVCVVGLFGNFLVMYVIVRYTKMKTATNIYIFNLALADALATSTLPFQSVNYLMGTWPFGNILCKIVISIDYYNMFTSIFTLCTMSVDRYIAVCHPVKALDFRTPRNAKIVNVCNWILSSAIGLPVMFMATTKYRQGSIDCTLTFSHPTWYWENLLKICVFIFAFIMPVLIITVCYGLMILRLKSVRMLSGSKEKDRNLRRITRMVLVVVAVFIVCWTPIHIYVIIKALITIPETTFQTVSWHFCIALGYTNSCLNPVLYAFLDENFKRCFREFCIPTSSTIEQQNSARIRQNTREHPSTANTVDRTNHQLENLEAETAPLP
UniProt P33033, sequence (P33033 whole entry): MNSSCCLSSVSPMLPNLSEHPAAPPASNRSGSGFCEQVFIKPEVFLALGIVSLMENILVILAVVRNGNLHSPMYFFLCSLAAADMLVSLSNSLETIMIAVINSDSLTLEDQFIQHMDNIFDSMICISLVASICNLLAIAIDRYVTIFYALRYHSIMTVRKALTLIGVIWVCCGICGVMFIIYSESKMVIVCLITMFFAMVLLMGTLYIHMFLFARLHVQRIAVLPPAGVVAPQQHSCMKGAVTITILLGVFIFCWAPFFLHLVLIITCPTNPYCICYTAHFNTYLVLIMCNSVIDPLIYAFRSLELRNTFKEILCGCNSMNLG

A frequency of GABAergic IPSCs recorded from POMC neurons [1] of 280% was found for D-Trp^8-γMSH (peptide) in this work.

For met-enkephalin (peptide), the hyperpolarization of the membrane potential of POMC cells (whole cell recording, mouse slices) [2] was 10 mV and 20 mV.

An IC50 [3] of 1.3 nM was found for Ac-LRHYLNLLTRQRY (ends and bridges not checked) [N-acetyl (Leu^28, Leu^31) NPY (24-36)] in this work.
